Test results taken from the supplement of paper PMC7125110.
± gives the standard error. Variants at the floor of the assay were thinned out.

B1: glmS ribozyme (parent)
chain: AUAAAAGCGCCAGAACUACAGAAAUGUAGUUGACGAGGAGGAGGUUUAUCGAAUUUUCGGCGGAUGCCUCCAAA

Legend:
Settings in all cases: with glucosamine-6-phosphate
[1] = variants of: B1; assay: self-cleavage kobs at 40 uM GlcN6P; higher = faster cleavage; RNA array
Procedure, shortened: (§1)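 E. coli RNA polymerase transcribed barcoded ribozyme variants in situ on sequenced MiSeq chips, which were tracked via a hybridised Cy3 probe at 37 °C. Tiles were imaged over ~14 h after glucosamine-6-phosphate (40 μM to 10 mM) in HEPES/KCl/Mg(OAc)2 buffer was flowed in. Normalised per-tile medians were fit to one- or two-exponential decays for kobs, and kcat and KM came from weighted Michaelis–Menten fits.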

[2] = variants of: B1; assay: self-cleavage kobs at 160 uM GlcN6P; higher = faster cleavage; RNA array
Procedure, shortened: as §1

[3] = variants of: B1; assay: self-cleavage kobs at 640 uM GlcN6P; higher = faster cleavage; RNA array
Procedure, shortened: as §1

[4] = variants of: B1; assay: self-cleavage kobs at 2500 uM GlcN6P; higher = faster cleavage; RNA array
Procedure, shortened: as §1

[5] = variants of: B1; assay: self-cleavage kobs at 10000 uM GlcN6P; higher = faster cleavage; RNA array
Procedure, shortened: as §1

Row | Variant | self-cleavage kobs at 40 uM GlcN6P [1] | self-cleavage kobs at 160 uM GlcN6P [2] | self-cleavage kobs at 640 uM GlcN6P [3] | self-cleavage kobs at 2500 uM GlcN6P [4] | self-cleavage kobs at 10000 uM GlcN6P [5]
1 | A42U U69A | 0.00293 ± 0.00038 s⁻¹ | 0.00511 ± 0.0011 s⁻¹ | 0.0164 ± 0.0051 s⁻¹ | 0.0275 ± 0.012 s⁻¹ | 0.101 ± 0.036 s⁻¹
2 | G44A G62A | < 1e-05 s⁻¹ | < 1e-05 s⁻¹ | < 1e-05 s⁻¹ | < 1e-05 s⁻¹ | < 1e-05 s⁻¹
3 | U46A G59U | < 1e-05 s⁻¹ | < 1e-05 s⁻¹ | < 1e-05 s⁻¹ | – | < 1e-05 s⁻¹
4 | U45A G51A | < 1e-05 s⁻¹ | < 1e-05 s⁻¹ | – | – | –
5 | U47G U69A | 5.4e-05 ± 1.7e-05 s⁻¹ | 7.68e-05 ± 1.4e-05 s⁻¹ | 7.46e-05 ± 1.4e-05 s⁻¹ | 0.000193 ± 3.4e-05 s⁻¹ | 8.6e-05 ± 1.4e-05 s⁻¹
6 | U45C A53G C67G C68A | 3.17e-05 ± 1.3e-05 s⁻¹ | – | – | – | 8.22e-05 ± 1.3e-05 s⁻¹
7 | U46C A64U | < 1e-05 s⁻¹ | – | – | – | 4.69e-05 ± 1.5e-05 s⁻¹
8 | U46C A64G | 0.000191 ± 2.5e-05 s⁻¹ | – | – | – | 0.00537 ± 0.0008 s⁻¹
9 | A42U U57C | < 1e-05 s⁻¹ | < 1e-05 s⁻¹ | < 1e-05 s⁻¹ | – | –
10 | U47G A48U A52C | < 1e-05 s⁻¹ | – | – | – | < 1e-05 s⁻¹
11 | G44U A52C | < 1e-05 s⁻¹ | < 1e-05 s⁻¹ | < 1e-05 s⁻¹ | < 1e-05 s⁻¹ | < 1e-05 s⁻¹
12 | U47G C67U | 0.000141 ± 2.6e-05 s⁻¹ | 0.000305 ± 5.6e-05 s⁻¹ | 0.00064 ± 8.6e-05 s⁻¹ | 0.00125 ± 0.0002 s⁻¹ | 0.00343 ± 0.00067 s⁻¹
13 | A48C U49G G62A | < 1e-05 s⁻¹ | – | – | – | –
14 | A42G U55G G59C | < 1e-05 s⁻¹ | – | – | < 1e-05 s⁻¹ | –
15 | A48C C68A | < 1e-05 s⁻¹ | – | – | – | < 1e-05 s⁻¹
16 | G44A G51A C67U | < 1e-05 s⁻¹ | – | – | – | –
17 | A48G A64G | < 1e-05 s⁻¹ | – | – | 7.81e-05 ± 2.4e-05 s⁻¹ | 9.59e-05 ± 2.5e-05 s⁻¹
18 | U49G G66C | < 1e-05 s⁻¹ | – | – | < 1e-05 s⁻¹ | –
19 | U46G G51U U57A C70G | 4.37e-05 ± 1.9e-05 s⁻¹ | – | – | – | –
20 | A48C A64C | < 1e-05 s⁻¹ | < 1e-05 s⁻¹ | – | < 1e-05 s⁻¹ | –
21 | A42G U55G | 0.00175 ± 0.00035 s⁻¹ | – | – | – | 0.0243 ± 0.0042 s⁻¹
22 | U49A G60C | < 1e-05 s⁻¹ | – | < 1e-05 s⁻¹ | < 1e-05 s⁻¹ | < 1e-05 s⁻¹
23 | G44C U46G | < 1e-05 s⁻¹ | < 1e-05 s⁻¹ | < 1e-05 s⁻¹ | < 1e-05 s⁻¹ | –
